Measured values published in patent publication US20120088722.

Tested on: T1, fluorescence labeled peptide of the protease-sensitive hinge region of LTBP1, REHGARS
T1 sequence: REHGARS

**Q.** For MMP13 catalytic domain (Enzo, Inc), which “Km (Michaelis-Menten non-linear fit, digest of fluorescence labeled hinge substrate)” value is on record?
**A.** The value was “Km=1.628e-016”.
